Experimental findings from PMC3351150 are described below.

For this test, the target named is controller protein C.Esp1396I. The test can be described thus: crystal structure.

Regarding “controller protein C.Esp1396I (natural protein)”, the stoichiometry N – broadly, a count of units in the complex or per binding partner – was 2.
